Patent US20240409645A1 (DUALYX, published 2024)

T1: human IL-2Rβ (human, UniProt P14784 27-240, limits assumed)
T1 construct: Recombinant protein, coated (ELISA) or immobilised on CM5 (SPR); also called hu IL-2R; interleukin 2 receptor β-chain
T1 sequence: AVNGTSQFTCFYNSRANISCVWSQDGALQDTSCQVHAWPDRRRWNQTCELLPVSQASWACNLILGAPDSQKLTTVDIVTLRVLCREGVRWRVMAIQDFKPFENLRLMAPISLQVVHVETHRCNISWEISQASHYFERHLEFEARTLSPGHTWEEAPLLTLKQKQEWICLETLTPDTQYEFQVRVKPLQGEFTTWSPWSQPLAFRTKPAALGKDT

T2: human IL-2Rβ (human, UniProt P14784 27-240, limits assumed)
T2 construct: recombinant protein, coated or immobilised; also called hu IL-2R; IL-2R beta
T2 sequence: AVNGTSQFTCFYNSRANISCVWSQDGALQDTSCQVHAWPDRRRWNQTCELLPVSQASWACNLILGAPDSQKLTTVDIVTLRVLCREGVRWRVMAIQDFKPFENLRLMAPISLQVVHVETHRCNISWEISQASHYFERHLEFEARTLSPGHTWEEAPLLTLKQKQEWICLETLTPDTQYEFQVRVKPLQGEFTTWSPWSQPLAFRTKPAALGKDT

B1: FJ1427_P035MP02E12 (VHH)
VHH: QVQLQESGGGLVQAGGSMRLSCAASGRTFSNYVIAWFRQAPGKEREFVGAITQTGRGTFYASSVEGRFTLSRLNDQSTVYLQMNSLNPEDTGVYYCSAPRSGRAGTRNQMDYEYWGQGTQVTVSS
notes: soluble VHH in periplasmic extract; also called clone nr
B2: FJ1427_P035MP02D12 (VHH)
VHH: QVQLVESGGGLVQAGGSLTLSCAASGGAFSSDAKAWFRQAPGKEREFVAAITWAGRGTDYADSVKGRFTITRDNAKATVHLQMNSLKPEDTAVYYCALNPRGVIGPAFRNSNHYTYWGQGTQVTVSS
notes: as for B1
B3: FJ1427 P035MP02F12 (VHH)
VHH: QLQLVESGGGLVQTGTSLRLSCAASGHTSRINAMGWFRQFPGKEREFVAAISRNGGSTVYVDSVKGRFTISRDNAKSTVYLQMNSLKPEDTAVYYCTATDAVGWTTRWMTADFGFWGQGTQVTVSS
notes: soluble VHH in periplasmic extract; also called clone nr; 190
B4: FJ1427 P035MP02G02 (VHH)
VHH: QVQLVESGGGLVQPGGSLRLSCAASGSHFISDVMGWYRQVPGKQRELVADMADGGSVKYGDSVKGRFTILRDSVKNTVTLQMSSLNPEDTGVYYCKAGLWITGRHFDYWGQGIQVTVTS
notes: as for B1
B5: FJ1427_P035MP02G01 (VHH)
VHH: QVQLVESGGGLVQTGGSLRLSCAVSGSRFISDVMGWYRQVPGKQRELVADMADGGSAKYADSVKGRFSILRDSAKNTVYLQMSSLKPEDTGIYYCKAGLWIAGRHSDYWGQGTQVTVSS
notes: as for B1
B6: FJ1427 P035MP02B12 (VHH)
VHH: QVQLVESGGGLVQAGGSLRLSCAASGRADSNAIMAWFRQAPGKEREFIVAVTYSGMPTYQDDSVQGRFTASRDNAKNTVYLQMNSLKPEDTAVYYCAARMYSASTYYGDYDYWGQGTQVTVSS
notes: as for B1
B7: FJ1427_P035MP02B02 (VHH)
VHH: EVQLVESGGTLVQTGGSLRLSCVVSGSHFISDVMGWYRQVPGKQRELVADMADGGSAKYGDSVKGRFTIVRDSVKNTVYLQMSSLNPEDTGVYYCKAGLWIKGRHSDYWGQGTQVTVTS
notes: as for B1
B8: FJ1427 P035MP02D02 (VHH)
VHH: QVQLVESGGGLVQVGGSLSVSCAASGRSFDSITMAYFRQAPGNEREFIAGINFSGSRTAYGDSVKGRFTISRDNAKNTVFLQMNSLNPEDTAVYYCAASPRGFYGPGHALYDYWGQGTQVTVSS
notes: as for B1
B9: FJ1427 P035MP03C10 (VHH)
VHH: QVQLVESGGGLVQAGGSLRLSCAASGRTFSTTEMGWFRQAPGKEREFVAAITWTGRGTMYAESVEGRFTISRENAKNMVYLQMNSLKPEDTAIYYCAAARRGRAAVRSEGGYDFWGQGTQVTVSS
notes: as for B1
B10: FJ1427_P035MP02H11 (VHH)
VHH: EVQLVESGGGLVQAGGSLRLSCAASGRTFSTTEMGWFRQAPGKEREFVAAITWTGRGTMYAESVEGRFTISRENAKNMVYLQMNSLKPEDTAIYYCAAARRGRAAVRSEGGYDFWGQGTQVAVSS
notes: as for B1
B11: FJ1427 P035MP03D01 (VHH)
VHH: QVQLVESGGGLVQPGGSLGLSCAASGFTFDNYAMSWVRQAPGKGLEWVSSITGAGRGTHYADSVKGRFTISRDNAKNTLYLQMNSLKPEDTAVYYCAKYSSSTYYPPTPARGTDYRGPGTQVTVSS
notes: as for B1
B12: FJ1427_P035MP02H01 (VHH)
VHH: QVQLVESGGGLVQPGGSLGLSCAASGFTFDNYAMSWVRQAPGKGLEWVSSITGAGRGTHYADSVKGRFTISRDNAKNTLYLQMNSLKPEDTAVYYCAKYSSSTYYPPTPARGTDYRGPGTQVTVSS
notes: as for B1
B13: FJ1427_P035MP03F02 (VHH)
VHH: QVQLVESGGGLVQPGGSLRLSCAASGFTFSNYAMSWVRQAPGKGLEWVSSITGAGRGTYYADSVKGRFTISRDNDKNTLYLQMNSLKPEDTAVYYCAKYDSSTYYPPTPARGIADRGQGIQVTVSS
notes: as for B1
B14: FJ1427 P035MP03B01 (VHH)
VHH: QVQLVESGGGLVQAGGSLRLSCAASGFTFSNYAMSWVRQAPGKGLEWVSSITGFGRGTDYADSVKGRFTISRDNAKNTLYLQMNSLKPEDTAVYYCARYSSSTYYPPTPARGTDYRGQGTQVTVSS
notes: as for B1
B15: FJ1427 P035MP03D04 (VHH)
VHH: QVQLVESGGGLVQPGGSLRLSCAASGFTFSNYAMSWVRQAPGKELEWVSSITSAGRGTHYADTVKGRFTISRDNDENTLYLQMNSLEPEDTAVYYCAKYSSATYYPPTPAQGRDYRGQGTQVTVSS
notes: soluble VHH in periplasmic extract; also called clone nr; 220
B16: FJ1427_P035MP03E06 (VHH)
VHH: QVQLVESGGGLVQAGRSLGLSCAASGFTFDNYAMSWVRQAPGKGLEWVSSITGAGRGTHYADSVKGRFTISRDNAKNTLYLQMNSLKPEDTAVYYCAKYSSSTYYPPTPARGTDYRGPGTQVTVSS
notes: as for B1
B17: FJ1427 P035MP02A12 (VHH)
VHH: QVQLQESGGGLVQAGGSLRLSCAVSGRSFRNYVMGWFRQAPGREREIVAGITQFTSTTYYDDSVKGRFTISRDNAKNTVYLQMNSLKPEDTALYYCAADRSIKMTADWAYWGQGTQVTVSS
notes: as for B1
B18: FJ1427_P035MP03H04 (VHH)
VHH: QVQLVESGGGLVQAGGSLALSCAASGGTFSSYAMGWFRQAPGKEREFVAATTRGGGRTMYAVSTEGRFSCSRDNAKNTVYLLIKNLKPEDTAVYYCAARTSYYDGTYYPASSDFDIWGQGTQVTVSS
notes: as for B1
B19: FJ1427 P035MP03C04 (VHH)
VHH: EVQLVESGGGLVQAGASLELSCAASGGTFSSYAMGWFRQAPGKEREFVAATTRGGGRTMYAVSTEGRFSCSRDNAKNTVNLLIKNLKPEDTAVYYCAARTSYYDGTYYPASSDFDIWGQGTQVTVSS
notes: as for B1
B20: FJ1427 P035MP03E01 (VHH)
VHH: QVQLVESGGGLVQAGGSLRLSCAASGGTFSSYAMGWFRQAPGKEREFVAATTRGGGRTMYAVSTEGRFTCSRDNAKNTVYLLMNSLKPEDTAVYYCAAMTSYYSGTYYPDSSDFDIWGQGTQVTVSS
notes: as for B1
B21: FJ1427_P035MP02C12 (VHH)
VHH: EVQLVESGGGSVQAGGSLRLSCAASGRTFSDYTMGWFRQAPGKEREFVVAITGTGHTTDMPDSVEGRFTISRDNAKNTIYLDMKNLKPGDTAVYYCASARGLPVTPLGDIIYWGEGTLVTVSS
notes: as for B1
B22: FJ1427_P035MP02F11 (VHH)
VHH: EVQLVESGGGLVQAGGSLRLSCAASGRDFSSYAMGWFRQAPGKEREFVVAITWTKRSTDFPDSVKGRFTISRDNAKNTVYLDMNSLKPEDTAVYYCASARGLPVTPLGDIIYWGEGTLVTVSS
notes: as for B1
B23: FJ1427_P035MP02G11 (VHH)
VHH: QLQLVESGGGLVQAGGSLRLSCAASGRDFSSYAMGWFRQAPGKEREFVVAITWTKRSTDFPDSVKGRFTISRDNAKNTVYLDMNSLKPEDTAVYYCASARGLPVTPLGDIIYWGEGTLVTVSS
notes: as for B1
B24: FJ1427 P035MP03F07 (VHH)
VHH: QVQLVESGGGLVQAGGSLRLSCAASGRTFSSYVMGWFRQAPGKEREFVVAITGTRRTTDWPDSVKGRFTISRDNAQNTVYLDMNSLKPEDTAVYYCASARGLPVPPLGDIIHWGEGTLVTVSS
notes: as for B1

Experiments:
[1] = molecular target: T1, human IL-2Rβ; experiment: P.E. binding ELISA on coated protein
Protocol: In a binding ELISA, human or mouse IL-2Rα, IL-2Rβ and IL-2Rγ proteins were coated directly on maxisorp microtiter plates overnight at 4° C. Free binding sites were blocked using 4% Marvel in PBS for 1 hour. Next, 1:5 dilution of P.E. in 1% Marvel/PBS were added to wells and incubated for 1 hour. […] Binding specificity was determined based on O.D. at 450 nm values compared to negative controls.

[2] = molecular target: T1, human IL-2Rβ; experiment: SPR (Biacore), P.E. off-rate ranking
[3] = molecular target: T2, human IL-2Rβ; experiment: SPR, P.E. off-rate
Method in brief: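 First, the IL-2R protein is immobilised via amine coupling in acetate buffer to roughly 2500 RU on a CM5 sensor chip. Next, the VHH extract is loaded at 30 uL/min. Finally, dissociation is recorded for 120s.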

[4] = molecular target: T2, human IL-2Rβ; experiment: P.E. ELISA, coated protein
Method in brief: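 Direct-coat ELISA: receptor protein o/n 4° C → 4% Marvel/PBS block 1 h → P.E. 1:5 in 1% Marvel/PBS, 1 h → OD450 vs neg. controls.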

| Binder | P.E. binding ELISA OD [1] [OD450 nm] | koff [2] [s⁻¹] | koff [3] [s⁻¹] | P.E. binding ELISA OD [4] [OD450 nm] |
| --- | --- | --- | --- | --- |
| B1 | 0.108 | 0.0115 |  |  |
| B2 | 0.658 | 0.00144 |  |  |
| B3 | 0.628 | 0.00294 |  |  |
| B4 |  |  | 0.000112 | 0.177 |
| B5 |  |  | 0.000368 | 0.169 |
| B6 | 1.25 | 0.000716 |  |  |
| B7 |  |  | 0.000164 | 0.343 |
| B8 |  |  | 0.000529 | 0.831 |
| B9 | 0.596 | 0.000439 |  |  |
| B10 | 0.795 | 0.000773 |  |  |
| B11 | 0.307 | 0.00127 |  |  |
| B12 |  |  | 0.00106 | 0.487 |
| B13 | 0.113 | 0.00191 |  |  |
| B14 | 0.203 | 0.0011 |  |  |
| B15 | 0.447 | 0.0016 |  |  |
| B16 | 0.299 | 0.00116 |  |  |
| B17 | 0.182 | 0.00451 |  |  |
| B18 | 0.262 | 0.000431 |  |  |
| B19 | 0.395 | 0.000307 |  |  |
| B20 | 0.329 | 0.000323 |  |  |
| B21 | 0.616 | 0.00106 |  |  |
| B22 | 0.33 | 0.000686 |  |  |
| B23 | 0.429 | 0.000708 |  |  |
| B24 | 0.156 | 0.00126 |  |  |
